According to doi:10.1101/2022.10.12.511876:
Read-outs that look alike come from different tables or passages of the source.

Legend:
[1] = target: Mpf2Ba1 activated by WCR gut fluid (N-terminally cleaved after Lys25) (Pseudomonas monteilii); assay: cryo-EM structure
[2] = target: Mpf2Ba1 activated by WCR gut fluid (N-terminally cleaved after Lys25) (Pseudomonas monteilii); assay: cryo-EM structure; remark: listed apart in the source

Substance “Mpf2Ba1 activated by WCR gut fluid (N-terminally cleaved after Lys25) (domain or fragment)” has a stoichiometry N [1] of 22 and a stoichiometry N [2] of 21.
